Results from PMC9486808 (ACS Chemical Biology, 2022).
No end group written: not given here.

B1: Fluorescein-labeled macrocyclic peptide S5 (peptide)
chain: YVLFRWDHGTLATHWVC
modifications: thioether (positions not given here); not fully specified (N-terminus, bridges); also: fluorescein (FAM) label, position not given here
B2: Fluorescein-labeled macrocyclic peptide L4 (peptide)
chain: YRWVWTSFFSEPYFVVC
modifications: thioether (positions not given here); not fully specified (N-terminus, bridges); also: fluorescein (FAM) label, position not given here
B3: Fluorescein-labeled macrocyclic peptide S3 (peptide)
chain: YLKIYWSKIHGLVSEWC
modifications: thioether (positions not given here); not fully specified (N-terminus, bridges); also: fluorescein (FAM) label, position not given here
B4: Fluorescein-labeled macrocyclic peptide L2 (peptide)
chain: YWHKNKYVLTYSCLFAA
modifications: thioether (positions not given here); not fully specified (N-terminus, bridges); also: fluorescein (FAM) label, position not given here

target: Recombinant soluble trimeric H1 HA ectodomain of A/California/04/2009 (H1N1) (Influenza A virus A/California/04/2009 …); assay: fluorescence polarisation; settings: both partners purified

Binder | Kd [nM]
B1 | ≤ 1
B2 | ≤ 1
B3 | ≤ 1
B4 | 2.4
